Reference: patent publication US20200024330A1

Columns and labels:
[1] = molecular target: HIV-1 JR-CSF Env I323A (HIV-1 isolate JR-CSF) (UniProt P20871); test: cell-based or functional assay
[2] = molecular target: Env of the clade B HIV-1 pseudoviruses of the cross-clade 162-pseudovirus panel (n = 31); test: cell-based or functional assay
[3] = molecular target: HIV-1 JR-CSF Env R315A (HIV-1 isolate JR-CSF) (UniProt P20871); test: cell-based or functional assay
[4] = molecular target: HIV-1 JR-CSF Env N262A (HIV-1 JR-CSF) (UniProt P20871); test: cell-based or functional assay
[5] = molecular target: HIV-1 JR-CSF Env I307A (HIV-1 JR-CSF) (UniProt P20871); test: cell-based or functional assay
[6] = molecular target: HIV-1 JR-CSF Env T202A (HIV-1 JR-CSF) (UniProt P20871); test: cell-based or functional assay
[7] = molecular target: HIV-1 JR-CSF Env I414A (HIV-1 (isolate JR-CSF)) (UniProt P20871); test: cell-based or functional assay
[8] = molecular target: HIV-1 JR-CSF Env E321aA (HIV-1 isolate JR-CSF) (UniProt P20871); test: cell-based or functional assay
[9] = molecular target: HIV-1 JR-CSF Env T388A (HIV-1 (isolate JR-CSF)) (UniProt P20871); test: cell-based or functional assay
[10] = molecular target: HIV-1 JR-CSF Env I423A (HIV-1 (isolate JR-CSF)) (UniProt P20871); test: cell-based or functional assay
[11] = molecular target: HIV-1 JR-CSF Env H330A (HIV-1 isolate JR-CSF) (UniProt P20871); test: cell-based or functional assay
[12] = molecular target: HIV-1 JR-CSF Env T297A (HIV-1 JR-CSF) (UniProt P20871); test: cell-based or functional assay
[13] = molecular target: Env of the clade F HIV-1 pseudoviruses of the cross-clade 162-pseudovirus panel (n = 15); test: cell-based or functional assay
[14] = molecular target: HIV-1 JR-CSF Env I424A (HIV-1 (isolate JR-CSF)) (UniProt P20871); test: cell-based or functional assay
[15] = molecular target: HIV-1 JR-CSF Env T303A (HIV-1 JR-CSF) (UniProt P20871); test: cell-based or functional assay
[16] = molecular target: HIV-1 JR-CSF Env R419A (HIV-1 (isolate JR-CSF)) (UniProt P20871); test: cell-based or functional assay
[17] = molecular target: HIV-1 JR-CSF Env L416A (HIV-1 (isolate JR-CSF)) (UniProt P20871); test: cell-based or functional assay
[18] = molecular target: Env of the clade AG HIV-1 pseudoviruses of the cross-clade 162-pseudovirus panel (n = 10); test: cell-based or functional assay
[19] = molecular target: HIV-1 JR-CSF Env Q337A (HIV-1 isolate JR-CSF) (UniProt P20871); test: cell-based or functional assay
[20] = molecular target: Env of the clade A HIV-1 pseudoviruses of the cross-clade 162-pseudovirus panel (n = 26); test: cell-based or functional assay
[21] = molecular target: HIV-1 Env of isolate MGRM-C-026 (HIV-1); test: cell-based or functional assay
[22] = molecular target: HIV-1 JR-CSF Env P313A (HIV-1 JR-CSF) (UniProt P20871); test: cell-based or functional assay
[23] = molecular target: HIV-1 JR-CSF Env S199A (HIV-1 JR-CSF) (UniProt P20871); test: cell-based or functional assay
[24] = molecular target: HIV-1 JR-CSF Env T413A (HIV-1 (isolate JR-CSF)) (UniProt P20871); test: cell-based or functional assay
[25] = molecular target: HIV-1 JR-CSF Env S306A (HIV-1 JR-CSF) (UniProt P20871); test: cell-based or functional assay
[26] = molecular target: HIV-1 JR-CSF Env V292A (HIV-1 JR-CSF) (UniProt P20871); test: cell-based or functional assay
[27] = molecular target: Env of the clade D HIV-1 pseudoviruses of the cross-clade 162-pseudovirus panel (n = 25); test: cell-based or functional assay
[28] = molecular target: HIV-1 JR-CSF Env S387A (HIV-1 (isolate JR-CSF)) (UniProt P20871); test: cell-based or functional assay
[29] = molecular target: HIV-1 JR-CSF Env D325A (HIV-1 isolate JR-CSF) (UniProt P20871); test: cell-based or functional assay
[30] = molecular target: HIV-1 JR-CSF Env S334A (HIV-1 isolate JR-CSF) (UniProt P20871); test: cell-based or functional assay
[31] = molecular target: HIV-1 JR-CSF Env N295A (HIV-1 JR-CSF) (UniProt P20871); test: cell-based or functional assay
[32] = molecular target: HIV-1 JR-CSF Env R327A (HIV-1 isolate JR-CSF) (UniProt P20871); test: cell-based or functional assay
[33] = molecular target: HIV-1 JR-CSF Env T320A (HIV-1 isolate JR-CSF) (UniProt P20871); test: cell-based or functional assay
[34] = molecular target: HIV-1 JR-CSF Env N411A (HIV-1 (isolate JR-CSF)) (UniProt P20871); test: cell-based or functional assay
[35] = molecular target: HIV-1 JR-CSF Env I415A (HIV-1 (isolate JR-CSF)) (UniProt P20871); test: cell-based or functional assay
[36] = molecular target: HIV-1 JR-CSF Env T319A (HIV-1 isolate JR-CSF) (UniProt P20871); test: cell-based or functional assay
[37] = molecular target: HIV-1 JR-CSF Env N339A (HIV-1 isolate JR-CSF) (UniProt P20871); test: cell-based or functional assay
[38] = molecular target: JR-FL gp120 ΔV1/ΔV2 (HIV-1 (isolate JR-FL)); test: ELISA on coated gp120; EC50 by nonlinear regression
[39] = molecular target: WT JR-FL gp120 (HIV-1 (isolate JR-FL)); test: as above

| Binder | Fold IC50 increase relative to wild-type [1] [fold] | Median IC50 against viruses neutralized with an IC50 <50 µg/ml [2] [µg/mL] | Fold IC50 increase relative to wild-type [3] [fold] | Fold IC50 increase relative to wild-type [4] [fold] | Fold IC50 increase relative to wild-type [5] [fold] | Fold IC50 increase relative to wild-type [6] [fold] | Fold IC50 increase relative to wild-type [7] [fold] | Fold IC50 increase relative to wild-type [8] [fold] | Fold IC50 increase relative to wild-type [9] [fold] | Fold IC50 increase relative to wild-type [10] [fold] | Fold IC50 increase relative to wild-type [11] [fold] | Fold IC50 increase relative to wild-type [12] [fold] | Median IC50 against viruses neutralized with an IC50 <50 µg/ml [13] [µg/mL] | Fold IC50 increase relative to wild-type [14] [fold] | Fold IC50 increase relative to wild-type [15] [fold] | Fold IC50 increase relative to wild-type [16] [fold] | Fold IC50 increase relative to wild-type [17] [fold] | Median IC50 against viruses neutralized with an IC50 <50 µg/ml [18] [µg/mL] | Fold IC50 increase relative to wild-type [19] [fold] | Median IC50 against viruses neutralized with an IC50 <50 µg/ml [20] [µg/mL] | other results |
| --- | --- | --- | --- | --- | --- | --- | --- | --- | --- | --- | --- | --- | --- | --- | --- | --- | --- | --- | --- | --- | --- |
| PGT-126 (antibody, V domains shown) VH: QPQLQESGPGLVEASETLSLTCTVSGDSTAACDYFWGWVRQPPGKGLEWIGGLSHCAGYYNTGWTYHNPSLKSRLTISLDTPKNQVFLKLNSVTAADTAIYYCARFDGEVLVYHDWPKPAWVDLWGRGTLVTVSS VL: QSALTQPPSASGSPGQSISISCTGTSNRFVSWYQQHPGKAPKLVIYGVNKRPSGVPDRFSGSKSGNTASLTVSGLQTDDEAVYYCSSLVGNWDVIFGGGTKLTVL | 0.9 | 0.02 | 1 | 1 | 1.8 | 0.8 | 0.4 | 0.6 | 0.6 | 1.1 | 0.5 | 0.8 | 0.05 | 0.4 | > 250 | 1.2 | 0.8 | 0.03 | 0.4 | 0.01 | Polyclonal Transfectant Neutralization Index (well 5141 B17) [21]: 102; Primary Neutralization Index (B cell culture well 5141 B17) [21]: 654; Fold IC50 increase relative to wild-type [22]: 0.4 fold; Fold IC50 increase relative to wild-type [23]: 0.8 fold; Fold IC50 increase relative to wild-type [24]: 0.7 fold; Fold IC50 increase relative to wild-type [25]: 0.7 fold; Fold IC50 increase relative to wild-type [26]: 5 fold; Median IC50 against viruses neutralized with an IC50 <50 µg/ml [27]: 0.04 µg/mL; Fold IC50 increase relative to wild-type [28]: 0.6 fold; Fold IC50 increase relative to wild-type [29]: 0.5 fold; Fold IC50 increase relative to wild-type [30]: > 30 fold; Fold IC50 increase relative to wild-type [31]: 0.9 fold; Fold IC50 increase relative to wild-type [32]: 2.2 fold; Fold IC50 increase relative to wild-type [33]: 0.6 fold; Fold IC50 increase relative to wild-type [34]: 0.7 fold; Fold IC50 increase relative to wild-type [35]: 0.3 fold; Fold IC50 increase relative to wild-type [36]: 0.8 fold; Fold IC50 increase relative to wild-type [37]: 0.6 fold; EC50 [38]: 0.3 µg/mL; EC50 [39]: 0.1 µg/mL |
| PGT-127 (antibody, V domains shown) VH: QPQLQESGPGLVEASETLSLTCTVSGDSTGRCNYFWGWVRQPPGKGLEWIGSLSHCRSYYNTDWTYHNPSLKSRLTISLDTPKNQVFLRLTSVTAADTATYYCARFGGEVLVYRDWPKPAWVDLWGRGTLVVTVS VL: QSALTQPPSASGSPGQSITISCTGTSNNFVSWYQQYPGKAPKLVIYEVNKRPSGVPDRFSGSKSGSTASLTVSGLQADDEGVYYCSSLVGNWDVIFGGGTKLTVL | 4 | 0.06 | 0.3 | 1.4 | 10.2 | 1.8 | 2.2 | 1.9 | 0.5 | 0.5 | 0.5 | 1.7 | 0.65 | 2 | > 500 | 2.5 | 1 | 0.04 | 0.5 | 0.02 | Polyclonal Transfectant Neutralization Index (well 5145 B14) [21]: 2.62; Primary Neutralization Index (B cell culture well 5145 B14) [21]: 86.9; Fold IC50 increase relative to wild-type [22]: 1.3 fold; Fold IC50 increase relative to wild-type [23]: 3 fold; Fold IC50 increase relative to wild-type [24]: 0.8 fold; Fold IC50 increase relative to wild-type [25]: 0.6 fold; Fold IC50 increase relative to wild-type [26]: 0.9 fold; Median IC50 against viruses neutralized with an IC50 <50 µg/ml [27]: 0.49 µg/mL; Fold IC50 increase relative to wild-type [28]: 1 fold; Fold IC50 increase relative to wild-type [29]: 0.93 fold; Fold IC50 increase relative to wild-type [30]: > 500 fold; Fold IC50 increase relative to wild-type [31]: 2.3 fold; Fold IC50 increase relative to wild-type [32]: 1.8 fold; Fold IC50 increase relative to wild-type [33]: 1.8 fold; Fold IC50 increase relative to wild-type [34]: 0.8 fold; Fold IC50 increase relative to wild-type [35]: 2.1 fold; Fold IC50 increase relative to wild-type [36]: 1 fold; Fold IC50 increase relative to wild-type [37]: 1.1 fold; EC50 [38]: 0.7 µg/mL; EC50 [39]: 0.1 µg/mL |
| PGT-125 (antibody, V domains shown) VH: QSQLQESGPRLVEASETLSLTCNVSGESTGACTYFWGWVRQAPGKGLEWIGSLSHCQSFWGSGWTFHNPSLKSRLTISLDTPKNQVFLKLTSLTAADTATYYCARFDGEVLVYNHWPKPAWVDLWGRGIPVTVSS VL: QSALTQPPSASGSPGQSITISCNGTATNFVSWYQQFPDKAPKLIIFGVDKRPPGVPDRFSGSRSGTTASLTVSRLQTDDEAVYYCGSLVGNWDVIFGGGTTLTVL | 0.9 | 0.02 | 0.9 | 0.9 | 5 | 0.8 | 0.3 | 1 | 0.6 | 5 | 0.7 | 0.9 | 0.04 | 0.7 | > 250 | 1 | 0.8 | 0.01 | 0.8 | 0.01 | Polyclonal Transfectant Neutralization Index (well 5123 A6) [21]: 88.3; Primary Neutralization Index (B cell culture well 5123 A6) [21]: 512; Fold IC50 increase relative to wild-type [22]: 0.3 fold; Fold IC50 increase relative to wild-type [23]: 0.7 fold; Fold IC50 increase relative to wild-type [24]: 0.5 fold; Fold IC50 increase relative to wild-type [25]: 1.2 fold; Fold IC50 increase relative to wild-type [26]: 3.3 fold; Median IC50 against viruses neutralized with an IC50 <50 µg/ml [27]: 0.09 µg/mL; Fold IC50 increase relative to wild-type [28]: 0.6 fold; Fold IC50 increase relative to wild-type [29]: 0.4 fold; Fold IC50 increase relative to wild-type [30]: 0.8 fold; Fold IC50 increase relative to wild-type [31]: 0.8 fold; Fold IC50 increase relative to wild-type [32]: 2.1 fold; Fold IC50 increase relative to wild-type [33]: 0.8 fold; Fold IC50 increase relative to wild-type [34]: 0.5 fold; Fold IC50 increase relative to wild-type [35]: 0.3 fold; Fold IC50 increase relative to wild-type [36]: 1.1 fold; Fold IC50 increase relative to wild-type [37]: 0.9 fold; EC50 [38]: 0.6 µg/mL; EC50 [39]: 0.2 µg/mL |
